According to patent US20230174609A1, “EXTENDED TIME ACTION ACYLATED INSULIN COMPOUNDS” (Eli Lilly and Company, priority 2020, published 2023):

Assays:
[1] = target: human insulin receptor subtype A (hIR-A) (human) (UniProt P06213); assay: cell-based or functional assay
[2] = target: human insulin receptor subtype B (hIR-B) containing a C-terminal C9 tag (human) (UniProt P06213); assay: cell-based or functional assay
[3] = target: human insulin receptor subtype B (hIR-B) containing a C-terminal C9 tag (human) (UniProt P06213); assay: SPA competitive radioligand binding, hIR-B membranes, 0.001% NP-40
[4] = target: human insulin receptor subtype B (hIR-B) containing a C-terminal C9 tag (human) (UniProt P06213); assay: SPA competitive radioligand binding, hIR-B membranes, 0.1% HSA
[5] = target: human insulin receptor subtype B (hIR-B) containing a C-terminal C9 tag (human) (UniProt P06213); assay: SPA competitive radioligand binding, hIR-B membranes, 0.1% BSA

Substance | receptor tyrosine auto-phosphorylation in HEK293 cells, ELISA, EC50, 0.1% BSA [1] | receptor tyrosine auto-phosphorylation in HEK293 cells, ELISA, EC50, 0.1% Casein [1] | receptor tyrosine auto-phosphorylation in HEK293 cells, ELISA, EC50, 0.1% BSA [2] | receptor tyrosine auto-phosphorylation in HEK293 cells, ELISA, EC50, 0.1% Casein [2] | Ki [3] | Ki [4] | Ki [5]
Example 1 (A14E, B16H, B25H, desB30 human insulin acylated at Lys B29 with HO2C-(CH2)18-CO-γGlu-γGlu-γGlu-Lys-Gly-) (ligand) | 2550 nM | 588 nM | 1560 nM | – | – | – | –
Example 2 (A14E, B16H, B25H, desB30 human insulin acylated at Lys B29 with HO2C-(CH2)18-CO-γGlu-γGlu-γGlu-Lys-(2-[2-(2-aminoethoxy)ethoxy]acetic acid)-) (ligand) | 3040 nM | 478 nM | 1790 nM | – | – | – | –
Example 3 (A14E, B16H, B25H, desB30 human insulin acylated at Lys B29 with HO2C-(CH2)18-CO-γGlu-γGlu-γGlu-εLys-Gly-) (ligand) | 3180 nM | 627 nM | 1220 nM | 183 nM | – | – | –
insulin-like growth factor 1 (IGF-1) (from UniProt P05019 49-118) (ligand) | – | – | 771 nM | 577 nM | 86.1 nM | 54.3 nM | 67.3 nM
